Source: article PMC6606709, “Granzyme A Stimulates pDCs to Promote Adaptive Immunity via Induction of Type I IFN” (Frontiers in Immunology, 2019)

Target: the molecule itself
Experiment: SDS-PAGE under reduced and non-reduced conditions; reduced and non-reduced GzmA run on 10-12 % SDS-PAGE, Coomassie Brilliant Blue stain

B1: recombinant granzyme A (GzmA), mouse, residues 29-260, histidine-tagged (enzyme, UniProt P11032 29-260, looked up)
chain: IIGGDTVVPHSRPYMALLKLSSNTICAGALIEKNWVLTAAHCNVGKRSKFILGAHSINKEPEQQILTVKKAFPYPCYDEYTREGDLQLVRLKKKATVNRNVAILHLPKKGDDVKPGTRCRVAGWGRFGNKSAPSETLREVNITVIDRKICNDEKHYNFHPVIGLNMICAGDLRGGKDSCNGDSGSPLLCDGILRGITSFGGEKCGDRRWPGVYTFLSDKHLNWIKKIMKGSV
notes: mouse granzyme A, residues 29-260; also called recombinant GzmA
stoichiometry N: 2
